± gives the standard deviation of the averaged measurements.
Assay: total protein half-life in vivo (active degradation + dilution); higher = more stable protein
[1] = E. coli NCM3722 delta-clpP delta-lon delta-hslV, growth: N-lim chemostat, doubling time 6 h
[2] = E. coli NCM3722 delta-clpP, growth: N-lim chemostat, doubling time 6 h
[3] = E. coli NCM3722 delta-hslV, growth: N-lim chemostat, doubling time 6 h
[4] = E. coli NCM3722 delta-lon, growth: N-lim chemostat, doubling time 6 h
[5] = E. coli NCM3722 delta-smpB, growth: N-lim chemostat, doubling time 6 h
[6] = wild type E. coli NCM3722, growth: C-lim chemostat, doubling time 6 h
[7] = wild type E. coli NCM3722, growth: C-lim chemostat, doubling time 12 h
[8] = wild type E. coli NCM3722, growth: N-lim chemostat, doubling time 6 h
[9] = wild type E. coli NCM3722, growth: N-lim chemostat, doubling time 12 h
[10] = wild type E. coli NCM3722, growth: P-lim chemostat, doubling time 6 h
[11] = wild type E. coli NCM3722, growth: P-lim chemostat, doubling time 12 h
[12] = wild type E. coli NCM3722, growth: C-lim chemostat, doubling time 3 h

Row | Sequence | total protein half-life in vivo [1] [h] | total protein half-life in vivo [2] [h] | total protein half-life in vivo [3] [h] | total protein half-life in vivo [4] [h] | total protein half-life in vivo [5] [h] | total protein half-life in vivo [6] [h] | total protein half-life in vivo [7] [h] | total protein half-life in vivo [8] [h] | total protein half-life in vivo [9] [h] | total protein half-life in vivo [10] [h] | total protein half-life in vivo [11] [h] | total protein half-life in vivo [12] [h]
1 | MSVRNIFADESHDIYTVRTHADGPDGELPLTAEMLINRPSGDLFGMTMNAGMGWSPDELDRDGILLLSTLGGLRGADGKPVALALHQGHYELDIQMKAAAEVIKANHALPYAVYVSDPCDGRTQGTTGMFDSLPYRNDASMVMRRLIRSLPDAKAVIGVASCDKGLPATMMALAAQHNIATVLVPGGATLPAKDGEDNGKVQTIGARFANGELSLQDARRAGCKACASSGGGCQFLGTAGTSQVVAEGLGLAIPHSALAPSGEPVWREIARASARAALNLSQKGITTREILTDKAIENAMTVHAAFGGSTNLLLHIPAIAHQAGCHIPTVDDWIRINKRVPRLVSVLPNGPVYHPTVNAFMAGGVPEVMLHLRSLGLLHEDVMTVTGSTLKENLDWWEHSERRQRFKQLLLDQEQINADEVIMSPQQAKARGLTSTITFPVGNIAPEGSVIKSTAIDPSMIDEQGIYYHKGVAKVYLSEKSAIYDIKHDKIKAGDILVIIGVGPSGTGMEETYQVTSALKHLSYGKHVSLITDARFSGVSTGACIGHVGPEALAGGPIGKLRTGDLIEIKIDCRELHGEVNFLGTRSDEQLPSQEEATAILNARPSHQDLLPDPELPDDTRLWAMLQAVSGGTWTGCIYDVNKIGAALRDFMNKN | 4.08 ± 0.67 | 3.14 | 3.82 ± 0.38 | 4.55 ± 0.14 | 3.33 ± 0.14 | 5.0317 ± 0.00062 | 8.896 ± 0.017 | 3.48 ± 0.52 | 4.88 ± 1.1 | 5.43 ± 0.13 | 10.1 ± 0.58 | –
2 | MKIISKMLVGALALAVTNVYAAELMTKAEFEKVESQYEKIGDISTSNEMSTADAKEDLIKKADEKGADVLVLTSGQTDNKIHGTANIYKKK | 5.25 ± 1.4 | 5.09 ± 0.88 | 5.83 ± 1 | 5.4 ± 0.39 | 4.12 ± 0.067 | 4.78 ± 0.76 | 5.78 ± 0.63 | 5.28 ± 0.32 | 9.55 ± 3.1 | 4.64 ± 1.1 | 9.62 ± 0.2 | 2.86 ± 0.34
3 | MKINQPAVAGTLESGDVMIRIAPLDTQDIDLQINSSVEKQFGDAIRTTILDVLARYNVRGVQLNVDDKGALDCILRARLEALLARASGIPALPWEDCQ | – | – | – | – | 1.09 | – | – | – | – | – | – | –
4 | MAYSKIRQPKLSDVIEQQLEFLILEGTLRPGEKLPPERELAKQFDVSRPSLREAIQRLEAKGLLLRRQGGGTFVQSSLWQSFSDPLVELLSDHPESQYDLLETRHALEGIAAYYAALRSTDEDKERIRELHHAIELAQQSGDLDAESNAVLQYQIAVTEAAHNVVLLHLLRCMEPMLAQNVRQNFELLYSRREMLPLVSSHRTRIFEAIMAGKPEEAREASHRHLAFIEEILLDRSREESRRERSLRRLEQRKN [P0ACL9] | 5.54 ± 0.1 | 5.3 ± 0.09 | 4.94 ± 0.19 | 4.33 | 4.54 ± 0.35 | 6.361 ± 0.042 | 9.49 ± 0.8 | 4.53 ± 0.67 | 9.28 | 5.59 ± 0.71 | 11.2 ± 1.1 | 2.94 ± 0.1
5 | MKLNIRAQTAQNQHNNSPIVLVHGLFGSLDNLGVLARDLVNDHNIIQVDMRNHGLSPRDPVMNYPAMAQDLVDTLDAQQIDKATFIGHSMGGKAVMALTALASDRIDKLVAIDIAPVDYHVRRHDEIFAAINAVSESDAQTRQQAAAIMRQHLNEEGVIQFLLKSFVDGEWRFNVPVLWDQYPHIVGWEKIPAWDHPALFIPGGNSPYVSEQYRDDLLAQFPQARAHVIAGAGHWVHAEKPDAVLRAIRRYLND | 5.19 ± 0.27 | 5.13 ± 0.26 | 5.14 ± 0.17 | 5.82 ± 1.4 | 5.07 ± 0.61 | 5.74 ± 0.4 | 9.16 ± 2.6 | 5.02 ± 0.39 | 10 ± 1.1 | 6.53 ± 0.95 | 12.4 ± 0.16 | 3.04 ± 0.12
6 | MSQLNSVWVFSDNPERYAELFGGAQQWGQQVYAIVQNTDQAQAVMPYGPKCLYVLAQNDALQRTENYAESIAALLKDKHPAMLLLAATKRGKALAARLSVQLNAALVNDATAVDIVDGHICAEHRMYGGLAFAQEKINSPLAIITLAPGVQEPCTSDTSHQCPTETVPYVAPRHEILCRERRAKAASSVDLSKAKRVVGVGRGLAAQDDLKMVHELAAVLNAEVGCSRPIAEGENWMERERYIGVSGVLLKSDLYLTLGISGQIQHMVGGNGAKVIVAINKDKNAPIFNYADYGLVGDIYKVVPALISQLSR | 5.37 ± 0.057 | – | 4.24 | – | – | – | – | – | 6.04 | – | – | –
7 | MNFEGKIALVTGASRGIGRAIAETLAARGAKVIGTATSENGAQAISDYLGANGKGLMLNVTDPASIESVLEKIRAEFGEVDILVNNAGITRDNLLMRMKDEEWNDIIETNLSSVFRLSKAVMRAMMKKRHGRIITIGSVVGTMGNGGQANYAAAKAGLIGFSKSLAREVASRGITVNVVAPGFIETDMTRALSDDQRAGILAQVPAGRLGGAQEIANAVAFLASDEAAYITGETLHVNGGMYMV [P0AEK2] | 5.03 ± 0.11 | 4.85 ± 0.11 | 4.8 ± 0.2 | 5.27 ± 0.39 | 4.814 ± 0.012 | 5.91 ± 0.17 | 12.8 ± 3.6 | 4.81 ± 0.28 | 8.546 ± 0.024 | 6.06 ± 0.38 | 11.3 ± 0.73 | 2.98 ± 0.11
